Laboratory results published in patent US20240343803A1 (SHANDONG SIMCERE BIOPHARMACEUTICAL, published 2024).
Changes are numbered by the printed parent chain. Where two headings read alike, the source gives them in different places.

T1: human TIGIT ECD-mFc (human)
T1 construct: also called human TIGIT protein; fusion protein of extracellular domain of human TIGIT and mouse IgG2a Fc fragment
T1 chain: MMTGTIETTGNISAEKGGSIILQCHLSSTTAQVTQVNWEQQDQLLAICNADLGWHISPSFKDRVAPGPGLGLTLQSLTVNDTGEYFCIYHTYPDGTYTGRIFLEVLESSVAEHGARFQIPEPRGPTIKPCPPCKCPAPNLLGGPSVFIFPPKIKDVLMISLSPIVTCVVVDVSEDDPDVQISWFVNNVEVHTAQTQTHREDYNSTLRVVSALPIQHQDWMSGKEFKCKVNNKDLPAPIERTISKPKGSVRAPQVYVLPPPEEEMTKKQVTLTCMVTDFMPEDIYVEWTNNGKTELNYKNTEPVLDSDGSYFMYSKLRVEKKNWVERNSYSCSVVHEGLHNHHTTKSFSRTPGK

T2: human PVRIG (AcroBiosystems, Cat NO. PVG-H52H4) (human, UniProt Q6DKI7 41-171, limits assumed)
T2 construct: Bought protein with His tag; also called human PVRIG-his; human PVRIG protein
T2 sequence (looked up): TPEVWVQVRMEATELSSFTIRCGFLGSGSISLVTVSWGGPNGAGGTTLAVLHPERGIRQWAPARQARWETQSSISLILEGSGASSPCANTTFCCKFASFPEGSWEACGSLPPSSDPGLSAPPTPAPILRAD

T3: human PVRIG-mFc protein (Acro, PVG-H5253) (human, UniProt Q6DKI7 41-171, limits assumed)
T3 construct: extracellular domain; Bought protein; also called PVRIG-ECD-mFc; not shown: mouse Fc tag of the bought protein
T3 sequence (looked up): T2 sequence (looked up)

T4: cynomolgus monkey PVRIG (Novoprotein, Cat NO. C09B) (cynomolgus monkey, UniProt A0A2K5WVV8 41-171)
T4 construct: Bought protein; construct not described; also called cynomolgus monkey PVRIG protein
T4 sequence: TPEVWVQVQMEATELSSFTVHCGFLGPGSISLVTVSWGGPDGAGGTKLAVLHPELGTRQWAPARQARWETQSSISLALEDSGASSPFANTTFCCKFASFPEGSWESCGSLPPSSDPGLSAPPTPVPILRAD

B1: RG6058-hIgG1 (antibody, V domains shown)
VH: EVQLQQSGPGLVKPSQTLSLTCAISGDSVSSNSAAWNWIRQSPSRGLEWLGKTYYRFKWYSDYAVSVKGRITINPDTSKNQFSLQLNSVTPEDTAVFYCTRESTTYDLLAGPFDYWGQGTLVTVSS
VL: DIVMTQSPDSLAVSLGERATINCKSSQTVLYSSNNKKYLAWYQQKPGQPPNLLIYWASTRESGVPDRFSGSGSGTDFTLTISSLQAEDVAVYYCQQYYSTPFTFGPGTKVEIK
notes: Anti-TIGIT positive control; also called Roche RG6058
B2: PVRIG-A50-H1b (Fc fusion)
chain: EVQLVESGGGLVQPGGSLRLSCAASGFTFSYYDMSWVRQAPGKGLEWVSTINSDGGRTSYVDSVKGRFTISRDNSKNTLYLQMNSLRAEDTAVYYCVEGDPHNFGLESLSLRDFGSWGQGTMVTVSS
notes: VHH-human IgG1 Fc format is stated for the parental VHH antibodies; not restated for the humanized variants; also called A50.VH1b; not shown: human IgG1 hinge-CH2-CH3 (Fc)
B3: TIGIT-002-H4L3 (antibody, V domains shown)
VH: EVQLQESGPGLVKPSETLSLTCAVSGYSITSDSWNWIRQPPGKKLEYIGYISYSGNTYYNPSLKSRVTISRDTSKNQFSLKLSSVTAADTAVYYCARLDFSNYGGAVDYWGQGTTVTVSS
VL: DIVMTQSPDSLAVSLGERATINCKASQNVRTAVAWYQQKPGQSPKLMIYSASYRYTGVPDRFSGSGSGTDFTLTISSLQAEDVAVYYCQQYYTTPWTFGGGTKVEIK
B4: TIGIT-005-H2L1d (antibody, V domains shown)
VH: EVQLVQSGAEVKKPGASVKVSCKASGYAFTNYLIEWVRQAPGQRLEWMGVINPGSGGTNYKEKFKGRVTITADKSSSTAYMELSSLRSEDTAVYYCARGEYFFFDYWGQGTTVTVSS
VL: B3 VL with N28H, R30S, T31N, Q38H, M47L, Y91H, T93N, W96H

How the values were obtained:
[1] = molecular target: T5, cynomolgus monkey TIGIT ECD-mFc (cynomolgus monkey); experiment: ELISA, cynomolgus TIGIT ECD-mFc captured by anti-mouse IgG
T5 construct: also called cynomolgus monkey TIGIT protein
Procedure: (§1) After washing with blocking buffer, the plate was added with 50 μL/well of 30 ng/ml human TIGIT ECD-mFc (in house) or cynomolgus monkey TIGIT ECD-mFc (in house) and incubated at 37° C. for 2.0 hours. After washing the plate, the serial diluted antibodies (initial concentration 13 nM, 3-fold serial dilution, 12 concentration points) were added into the plate (50 μL/well) and incubated at 37° C. for 2.0 hours. After washing the plate, the goat anti-human IgG Fc-HRP (Merck, Cat NO. AP113P)) working solution (dilution ratio 1:5000, 50 μL/well) were added into wells and incubated at 37° C. for 1.0 hour. A HRP substrate, TMB (KPL, Cat NO. 5120-0077) was added into wells after washing the plate again for color development. After adding a termination solution to terminate the reaction, the absorbance value was read by a microplate reader (PE, Ensight-HH3400). An antibody binding curve was drawn with molar concentration of antibodies as the abscissa and the corresponding OD value as the ordinate. The EC50 value was calculated by using a Four Parameter Logistic Fit (GraphPad Prism9). […] The positive control antibodies are RG6058-hIgG1, TIGIT-002-H4L3 and TIGIT-005-H2Lld; and the negative control antibodies are anti-Fluorescein-hIgG1 (in house). The binding results of the 4 humanized bispecific antibodies to human TIGIT protein are shown in FIG. 43 and Tables 42 and 43, and the binding results to cynomolgus monkey TIGIT are shown in FIG. 44 and Tables 42 and 43.

[2] = molecular target: T5, cynomolgus monkey TIGIT ECD-mFc; experiment: as above; remark: listed apart in the source
Procedure: as §1

human TIGIT ECD-mFc [3] = molecular target: T1, human TIGIT ECD-mFc; experiment: ELISA, human TIGIT ECD-mFc captured by anti-mouse IgG
Procedure: as §1

human TIGIT ECD-mFc [4] = molecular target: T1, human TIGIT ECD-mFc; experiment: as above
Procedure: as §1

[5] = molecular target: T2, human PVRIG (AcroBiosystems, Cat NO. …); experiment: ELISA, coated human PVRIG
Procedure: (§2) The ELISA plate was pre-coated with 50 μL/well of 1.0 μg/mL human PVRIG (AcroBiosystems, Cat NO. PVG-H52H4) or 50 μL/well of 0.5 μg/mL cynomolgus monkey PVRIG (Novoprotein, Cat NO. C09B). The tested antibodies were serially diluted (initial concentration 13 nM, 3-fold serial dilution, 12 concentration points), added into the plate (50 μL/well) and incubated at 37° C. for 2.0 hours. After washing the plate, the Goat anti-human IgG Fc-HRP (Merck, Cat NO. AP113P) working solution (dilution ratio 1:5000, 50 μL/well) were added into wells and incubated at 37° C. for 1.0 hour. A HRP substrate, TMB (KPL, Cat NO. 5120-0077) was added into wells after washing the plate again and incubated at 37° C. for 10 minutes for color development. After adding a termination solution to terminate the reaction, the absorbance value was read by a microplate reader (PE, Ensight-HH3400). An antibody binding curve was drawn with molar concentration of antibodies as the abscissa and the corresponding OD value as the ordinate. The EC50 value was calculated by using a Four Parameter Logistic Fit (GraphPadPrism9). […] The positive control antibodies are COM701-hIgG1, PVRIG-A50-H1b and PVRIG-A105-H1; and the negative control antibodies are anti-Fluorescein-hIgG1 (in house). The binding results of the 4 humanized bispecific antibodies to human PVRIG protein are shown in FIG. 41 and Tables 40 and 41, and the binding results to cynomolgus monkey PVRIG are shown in FIG. 42 and Tables 40 and 41. […] The binding of LC-BsAb-002 and LC-BsAb-006 to human PVRIG protein is slightly weaker than that of the corresponding monoclonal antibody (PVRIG-A50-H1b) and the positive control (COM701-hIgG1).

[6] = molecular target: T3, human PVRIG-mFc protein (Acro, …); experiment: HTRF competition, PVRIG-mFc with Bio-CD112-His as competitor
Procedure: PVRIG-mFc (ACRO Biosystems, Cat NO. PVG-H5253) and Bio-CD112-His (Sino Biological, Cat NO. 10005-H08H) were diluted to 0.5 μg/mL, respectively. Streptavidin-Tb cryptate (Cisbio) and PAb anti mouse IgG-XL665 (Cisbio) were diluted to 20 μg/mL and 0.8 μg/mL, respectively. The tested antibodies were diluted from the initial concentration of 120 nM, by 3-fold serial dilution for 12 concentration points. The diluted PVRIG-mFc, Bio-CD112-His, Streptavidin-Tb Crytate and PAb anti mouse IgG-XL665 were mixed at 1:1:1:1, and added into a 384-well plate (PE, Cat NO. 6007299), 10 μL/well. 10 μL/well of serially diluted antibodies was added into wells, centrifuged at 1500 rpm for 30s, and incubated at 37° C. for 1 hour. The plate was read on the microplate reader (PE, Envision2105) with wavelengths of 665 nm and 620 nm. […] A Four Parameter Logistic Fit was performed with the molar concentration of the antibodies as the abscissa and Ratio as the ordinate to calculate IC50. The smaller the IC50, the better the effect of the antibody block the binding of PVRIG to PVRL2. The positive controls in this experiment are COM701-hIgG1, PVRIG-A50-H1b and PVRIG-A105-H1; and the negative control antibody is anti-Fluorescein-hIgG1 (in house). The effect of 4 humanized bispecific antibodies blocking the binding of PVRIG to PVRL2 is shown in FIG. 51 and Tables 44 and 45. […] The blocking effect of LC-BsAb-002 is better than its corresponding monoclonal antibody (PVRIG-A50-H1b) and the positive control (COM701-hIgG1). The blocking effect of LC-BsAb-006 is better than its corresponding monoclonal antibody (PVRIG-A50-H1b), but slightly weaker than the positive control (COM701-hIgG1). The blocking effects of LC-BsAb-009 and LC-BsAb-010 are not as good as their corresponding monoclonal antibodies (PVRIG-A105-H1) and the positive control (COM701-hIgG1).

[7] = molecular target: T3, human PVRIG-mFc protein (Acro, …); experiment: FACS blocking of PVRIG-mFc binding to CHO-K1-CD112 cells; competitor CD112
Procedure, shortened: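 Zombie violet-stained CHO-K1-CD112 cells were added for 30 min at 4° C, then PE goat anti-mouse IgG Fc (1:250) was applied and mean fluorescence intensity read on a BD Canto II. Curves were fitted with four-parameter logistic models in GraphPad Prism 9. IC50 and curve AUC were reported as percentages of the reference antibody values.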

[8] = molecular target: T4, cynomolgus monkey PVRIG (Novoprotein, …); experiment: ELISA, coated cynomolgus PVRIG
Procedure: as §2

Row | Binder | % relative activity RG6058-hIgG1/tested antibody [1] | % relative activity TIGIT-005-H2L1d/tested antibody [1] | EC50 [1] | % relative activity RG6058-hIgG1/tested antibody [2] | % relative activity TIGIT-002-H4L3/tested antibody [2] | EC50 [2] | % relative activity RG6058-hIgG1/tested antibody (human TIGIT ECD-mFc [3]) | % relative activity TIGIT-005-H2L1d/tested antibody (human TIGIT ECD-mFc [3]) | EC50 (human TIGIT ECD-mFc [3]) | % relative activity RG6058-hIgG1/tested antibody (human TIGIT ECD-mFc [4]) | % relative activity TIGIT-002-H4L3/tested antibody (human TIGIT ECD-mFc [4]) | EC50 (human TIGIT ECD-mFc [4]) | other results
1 | B1 | 100% | 96.8% | 0.0461 nM | 100% | 90% | 0.0461 nM | 100% | 85.2% | 0.0504 nM | 100% | 74.3% | 0.0504 nM | –
2 | B2 | – | – | – | – | – | – | – | – | – | – | – | – | % relative activity COM701-hIgG1/tested antibody [5]: 65.4%; % relative activity PVRIG-A50-H1b/tested antibody [5]: 100%; EC50 [5]: 0.379 nM; % relative activity COM701-hIgG1/tested antibody [6]: 66.7%; % relative activity PVRIG-A50-H1b/tested antibody [6]: 100%; IC50 [6]: 0.206 nM; % AUC to COM701-hIgG4 [7]: 104%; % AUC to SO35-hIgG1 [7]: 61.6%; % AUC to parental Ab [7]: 85.5%; % IC50 to COM701-hIgG4 [7]: 95.2%; % IC50 to SO35-hIgG1 [7]: 73.7%; % IC50 to parental Ab [7]: 81.4%; % relative activity COM701-hIgG1/tested antibody [8]: 95.5%; % relative activity PVRIG-A50-H1b/tested antibody [8]: 100%; EC50 [8]: 0.038 nM
3 | B3 | – | – | – | 111% | 100% | 0.0415 nM | – | – | – | 135% | 100% | 0.0374 nM | –
4 | B4 | 103% | 100% | 0.0446 nM | – | – | – | 117% | 100% | 0.0429 nM | – | – | – | –
